Source: the supplement of paper PMC9170038

Tested on: MS2 coat protein
Experiment: apparent KD of MS2 coat protein; designed switch direction (-1 OFF switch, 1 ON switch): 1; higher = weaker reporter binding
Procedure, shortened: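 On Illumina chips, designed RNA switches with common flanks were made by stalled E. coli RNA polymerase. Titrations with SNAP-549-labelled MS2 coat protein, doubling from 0.7 or 1.5 nM to 3 µM, were done with no input, with 200 uM small-molecule ligand, or with an oligonucleotide input. Apparent KD is the median per design over clusters, from curve fits of normalised cluster fluorescence.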

[1] = Eterna round: R95, input ligand: microRNA oligo, concentration not stated
[2] = input ligand: microRNA oligo, concentration not stated
[3] = Eterna round: R95, input ligand: FMN 200 uM
[4] = Eterna round: R95, input ligand: none

GCUUCACAUGAGGAUCACCCAUGUUUUCGGAGUCGAGGAUAUGGUCACUGUAAACAGUGGCCAGAAGGCGAGGAGC [SS1 - Son of Teenbexe v8] (puzzle: Same State 1)
apparent KD of MS2 coat protein [1]: 17 nM

ACAUGAGACCAAGGAUAUUUUGUACCUACAUGUGACAUGAGGAUCACCCAUGUGGUAAGUAUGAGAGAGAAGGUGGAGAUAUGU [Equivalence 23 - Jieux - Same State NG 2] (Eterna round: R96, puzzle: Same State NG 2)
apparent KD of MS2 coat protein (input ligand: FMN 200 uM): 34.4 nM | apparent KD of MS2 coat protein [2]: 21.5 nM | apparent KD of MS2 coat protein (input ligand: none): 36.5 nM

GAGUGGUUGGGAGGAUAUGCAUUGUUAUUAAAUGCAGAAGGUUUUAACAUGAGGAUCACCCAUGUAGGACUAUUCCUGUGUUUC [Parity 68 - Jieux - Same State NG 1] (Eterna round: R96, puzzle: Same State NG 1)
apparent KD of MS2 coat protein [2]: 12.6 nM

AUUAAACAUGAGGAUCACCCAUGUAAUAUUAUGGGAGGAUAUGCGAAUUUAAUUAAUUAAGCAGAAGGCCUAAUUA [Mat - Same State 1 - D101] (puzzle: Same State 1)
apparent KD of MS2 coat protein [1]: 106 nM

UGAGCCGGCACUGAGGAUAUUCAUAAUAAAACAUGAGGAUCACCCAUGUAGGCCAGAAGGCCUUGGGAGAAGGCAGGUCGGCUCA [Mat - Same State 2 - Mod of UCT - D71] (Eterna round: R96, puzzle: Same State 2)
apparent KD of MS2 coat protein (input ligand: FMN 200 uM): 15.7 nM | apparent KD of MS2 coat protein [2]: 147 nM | apparent KD of MS2 coat protein (input ligand: none): 191 nM

UCGAGCGUACUUGCAGACAUGAGGAUCACCCAUGUAAAUGGGAAGGAUAUGGUACCGUUUCGGUACCAGAAGGUCCUACGUGCU [salish99_SSNG3_r04_305] (Eterna round: R96, puzzle: Same State NG 3)
apparent KD of MS2 coat protein (input ligand: FMN 200 uM): 325 nM | apparent KD of MS2 coat protein [2]: 48.8 nM | apparent KD of MS2 coat protein (input ligand: none): 144 nM

AGUCCAGCCUGAGCUGGACAAAAGCAUGUACAUGAGGAUCACCCAUGUUCAUGUACAAGCUUUUUGCUCGUCUUAUC [salish99_208a_r3_058] (puzzle: Sensor for hsa-mir-208a)
apparent KD of MS2 coat protein [3]: 578 nM | apparent KD of MS2 coat protein [1]: 16.6 nM | apparent KD of MS2 coat protein [4]: 677 nM

ACGCAGCUGGGUAAGGAUAUCGGUGGUAAAACAUGAGGAUCACCCAUGUCCGAAGCUCGGACCUCCGAGAAGGUGCCCGGCUGCG [Soinraesar Omei Mod 7] (puzzle: Same State 2)
apparent KD of MS2 coat protein [1]: 6.58 nM

UGUUGUAUUACAGGAUAUCUAUUAGAUUUAUUUAGAGAAGGGUAUUCACAUGAGGAUCACCCAUGUAUAUACGAGGAAGUUGUG [JMF's solution 86] (Eterna round: R96, puzzle: Same State NG 1)
apparent KD of MS2 coat protein [2]: 40.2 nM

AAUAUUUAUGCAGGAUAUGAUUAACAUGAGGAUCACCCAUGUGGUGUUGUGAGUAAGGAGAGUGAUCAGAAGGGCAUUUUUUUU [JMF's solution 73] (Eterna round: R96, puzzle: Same State NG 2)
apparent KD of MS2 coat protein (input ligand: FMN 200 uM): 379 nM | apparent KD of MS2 coat protein [2]: 271 nM | apparent KD of MS2 coat protein (input ligand: none): 463 nM

GUAGAUAUAACGGAGGAUAUUCAAUGAGAGACAUGAGGAUCACCCAUGUAAGAGUGAGAUGAUAGGAAGAAGGCUGAGAGAGAUG [Altered State 2-9 - Jieux - Same State 2] (puzzle: Same State 2)
apparent KD of MS2 coat protein [3]: 140 nM | apparent KD of MS2 coat protein [1]: 139 nM | apparent KD of MS2 coat protein [4]: 102 nM

AGAUCAUGACGAGGAUAUGGUACAUGAGGAUCACCCAUGUAUGUACCACGACGCGUACGUCGAAUCCAGAAGGCGUCGUGAUCA [Mat - Same State NG 2 - JL mod - D16] (Eterna round: R96, puzzle: Same State NG 2)
apparent KD of MS2 coat protein (input ligand: FMN 200 uM): 19 nM | apparent KD of MS2 coat protein [2]: 66.1 nM | apparent KD of MS2 coat protein (input ligand: none): 99.3 nM

GAAAAACAUGAGGAUCACCCAUGUGUAAACAAGGGAGGAUAUACAAAGACGUAAGUCAAAGUAGAAGGCCUAAAAG [Garnet 38] (Eterna round: R96, puzzle: Same State 1)
apparent KD of MS2 coat protein (input ligand: FMN 200 uM): 19.6 nM | apparent KD of MS2 coat protein [2]: 54.3 nM | apparent KD of MS2 coat protein (input ligand: none): 71.8 nM

GUUACAUGAGGAUCACCCAUGUAUGUGUGGGAGUAAGUGUCUUAGGAUAUCUAGUAUUUAAUUUGAGAGAAGGAAGAUUGUUGU [JMF's solution 70] (Eterna round: R96, puzzle: Same State NG 3)
apparent KD of MS2 coat protein (input ligand: FMN 200 uM): 138 nM | apparent KD of MS2 coat protein [2]: 83.9 nM | apparent KD of MS2 coat protein (input ligand: none): 147 nM

AGGAAACAUGAGGAUCACCCAUGUAUCGAGCCGCGAGGAUAUGGGUAUCAAAGGCGAGGAUCAGAAGGUGCAGGCG [Eseddierve] (puzzle: Same State 1)
apparent KD of MS2 coat protein [3]: 235 nM | apparent KD of MS2 coat protein [1]: 54.9 nM | apparent KD of MS2 coat protein [4]: 153 nM

UCAACUUUUUUUAGUGUGUUGCCAGGUUAACAUGAGGAUCACCCAUGUAAAGUAUAGUGGGAUUAAGUUCGUCUUAA [JR_SHM208A_Sub072] (puzzle: Sensor for hsa-mir-208a)
apparent KD of MS2 coat protein [3]: 77.2 nM | apparent KD of MS2 coat protein [1]: 83.6 nM | apparent KD of MS2 coat protein [4]: 93.9 nM

CGGCUUGUACAUGAGGAUCACCCAUGUAUGUACAAGUUUUUGCUCGUCUUAUAAAUACGAUCUACCGAAAGGUAGAU [BIOPHYS241_ElaineNg_1] (puzzle: Sensor for hsa-mir-208a version 2)
apparent KD of MS2 coat protein [3]: 276 nM | apparent KD of MS2 coat protein [1]: 18.7 nM | apparent KD of MS2 coat protein [4]: 236 nM

GGAAUAUGAUGUUACAUGAGGAUCACCCAUGUAGUAAUAACUAAGGAUAUUUGAAAGGGAGGAGAAGAGAAGGUAGGAUCAUAA [AK SSNG3-V2-11] (Eterna round: R96, puzzle: Same State NG 3)
apparent KD of MS2 coat protein (input ligand: FMN 200 uM): 61 nM | apparent KD of MS2 coat protein [2]: 41.3 nM | apparent KD of MS2 coat protein (input ligand: none): 63.8 nM

GGUAUUAACACAGGAUAUGCUUACGAAACGUAAGCAGAAGGGUGAACAUGAGGAUCACCCAUGUUUGUACCAGGGCGUGAGCCC [JL SSNG1 1.72] (Eterna round: R96, puzzle: Same State NG 1)
apparent KD of MS2 coat protein (input ligand: FMN 200 uM): 349 nM | apparent KD of MS2 coat protein [2]: 632 nM | apparent KD of MS2 coat protein (input ligand: none): 923 nM

AGCCGAGACUGAGGAUAUUUGUAUCUACAUGAGGAUCACCCAUGUAGCGUCACGUGGUAGUGAUCGAAGAAGGCAGCUCGGCGC [MOD3 of Omei's SS(NG)2 Cv2] (Eterna round: R96, puzzle: Same State NG 2)
apparent KD of MS2 coat protein (input ligand: FMN 200 uM): 11.1 nM | apparent KD of MS2 coat protein [2]: 11.2 nM | apparent KD of MS2 coat protein (input ligand: none): 21.9 nM

GGAAUAUGAUGUUACAUGAGGAUCACCCAUGUAGUGACAACUAAGGAUAUCUGAAAGGAAGGAGAGGAGAAGGUAGGAUCAUAA [AK SSNG3-V2-14] (Eterna round: R96, puzzle: Same State NG 3)
apparent KD of MS2 coat protein (input ligand: FMN 200 uM): 20 nM | apparent KD of MS2 coat protein [2]: 24.6 nM | apparent KD of MS2 coat protein (input ligand: none): 33.3 nM

UAGAAACAUGAGGAUCACCCAUGUGGGUUAAACACAGGAUAUCACGCCAAAAGAAAAGCGUGAGAAGGGUGACCGA [Xeusisus] (puzzle: Same State 1)
apparent KD of MS2 coat protein [3]: 166 nM | apparent KD of MS2 coat protein [1]: 71.2 nM | apparent KD of MS2 coat protein [4]: 161 nM

GCGGAACGGGCCGACAUGAGGAUCACCCAUGUGCCCUCAUGUAAGGAUAUCGGGAAGAAGAAAACCGAGAAGGUACGGUGACGC [AK SSNG3-V2-30] (Eterna round: R96, puzzle: Same State NG 3)
apparent KD of MS2 coat protein (input ligand: FMN 200 uM): 945 nM | apparent KD of MS2 coat protein [2]: 51.5 nM | apparent KD of MS2 coat protein (input ligand: none): 137 nM

UGUCCAGCCUGAGCUGGACAAAAGCAUGUACAUGAGGAUCACCCAUGUUCAUGUACAAGCUUUUUGCUCGUCUUGCA [salish99_208a_r3_109x] (puzzle: Sensor for hsa-mir-208a)
apparent KD of MS2 coat protein [3]: 637 nM | apparent KD of MS2 coat protein [1]: 14.5 nM | apparent KD of MS2 coat protein [4]: 492 nM

GUAAUACAUGAGGAUCACCCAUGUCAAUGUAGUCGAGGAUAUGGGUAGCUAUGAGGCUUACUAGAAGGCGACGAGC [Same State 1 - Mod of Vinnie Teenbexe v.5] (puzzle: Same State 1)
apparent KD of MS2 coat protein [3]: 28 nM | apparent KD of MS2 coat protein [1]: 176 nM | apparent KD of MS2 coat protein [4]: 359 nM

CCGGUUUAUGGAGGAUAUGGAGCCUUAUUGGCUCCAGAAGGCUAAACAUGAGGAUCACCCAUGUUACCGGCGGUCAAUAGACCG [Eli NG1ss - 60] (Eterna round: R96, puzzle: Same State NG 1)
apparent KD of MS2 coat protein (input ligand: FMN 200 uM): 11.8 nM | apparent KD of MS2 coat protein [2]: 20.5 nM | apparent KD of MS2 coat protein (input ligand: none): 23.1 nM

UUUUUUAUCGUAGGAUAUAGGUUGAAUAAUAGACUAGAAGGACGUCACAUGAGGAUCACCCAUGUUUUUUAAGUGUCGAAGUGU [JR_SSNG1_Sub040] (Eterna round: R96, puzzle: Same State NG 1)
apparent KD of MS2 coat protein (input ligand: FMN 200 uM): 31.3 nM | apparent KD of MS2 coat protein [2]: 23 nM | apparent KD of MS2 coat protein (input ligand: none): 29.4 nM

GUAUCUACAGGUUUUUUAGCUCGUCUGAUACAUGAGGAUCACCCAUGUUAUAGCCCUGUGCUUGCGCAGGGCUGAGG [Sensor for hsa-mir-208a ( MOD of Tearor v.4 )] (puzzle: Sensor for hsa-mir-208a)
apparent KD of MS2 coat protein [3]: 47.6 nM | apparent KD of MS2 coat protein [1]: 34.1 nM | apparent KD of MS2 coat protein [4]: 49.3 nM

CGUCGUUUGAUAGGAUAUCGCUUUGCAUGAGGAUCACCCAUGUUUACCACGCUGGUUUUUCUUUCCGAGAAGGAUUCUGAUGUU [salish99_SSNG02_r04_024] (Eterna round: R96, puzzle: Same State NG 2)
apparent KD of MS2 coat protein (input ligand: FMN 200 uM): 42 nM | apparent KD of MS2 coat protein [2]: 29.2 nM | apparent KD of MS2 coat protein (input ligand: none): 39.6 nM

UUAUUCUAUAUAGGAUAUUGAUGCAAUUUACCUCAAGAAGGAUAUACAUGAGGAUCACCCAUGUUGGAUAGGGUUAGUUUGUUU [JR_SSNG1_Sub081] (Eterna round: R96, puzzle: Same State NG 1)
apparent KD of MS2 coat protein [2]: 56 nM

AGUCCAGCAUGAGCUGGACAAAAGCAUGUACAUGAGGAUCACCCAUGUCAUGUACAAGCUUUUUGCUCGUCUUAAAA [Mat - hsa-mir-208a - Mod of JL - D1] (puzzle: Sensor for hsa-mir-208a)
apparent KD of MS2 coat protein [3]: 512 nM | apparent KD of MS2 coat protein [1]: 16.7 nM | apparent KD of MS2 coat protein [4]: 627 nM
